Conditions in all cases: remark: other sources report otherwise
In test [1] the target is HLA-A24.02 (human). In words: pMHC-I complex dissociation at 37 C, radiolabeled b2m.
In test [2] the target is HLA-A02.01 (human). Described as above.
For test [3], the target named is HLA-A24.02 (human). The test can be described thus: competition with radiolabeled reference peptide on prepared MHC class I.
The target in test [4] is HLA-A02.01 (human). The test is described as above.
In test [5] the target is HLA-A01.01 (human). In words: pMHC-I complex dissociation at 37 C, radiolabeled b2m.
Test [6] addresses HLA-A01.01 (human). The test can be described thus: competition with radiolabeled reference peptide on prepared MHC class I.
Test [7] has as its target HLA-B07.02 (human). The test can be described thus: pMHC-I complex dissociation at 37 C, radiolabeled b2m.
Test [8] concerns the target HLA-B07.02 (human). The test can be described thus: competition with radiolabeled reference peptide on prepared MHC class I.

B1: … (peptide)
peptide: MQLMPFGCLL
On to B1, for which the Stability (half-life (hr.)) in test [1] is 0 min; in test [2], 22.9 min. Besides, the Affinity came out at 18.9 µM in test [3] and 16.3 nM in test [4].

B2: … (peptide)
peptide: STVQLIMQL
For the molecule B2, the Stability (half-life (hr.)) in test [2] stood at 0 min. The Affinity in test [4] was 7260 nM.

B3: … (peptide)
peptide: CLTSTVQLIM
Take B3: the Stability (half-life (hr.)) in test [5] and in test [2] was 0 min each time. For the same molecule, the results for the Affinity in test [6] and in test [4] were 8.28 µM and 537 nM, respectively.

B4: … (peptide)
peptide: IMQLMPFGCL
Regarding B4, the Stability (half-life (hr.)) in test [1] was 0 min; in test [2], 30.9 min. For the same molecule, the values for the Affinity in test [3] and in test [4] were 14.1 µM and 653 nM, respectively.

B5: … (peptide)
peptide: QLIMQLMPF
As to B5, the Stability (half-life (hr.)) in test [1] stood at 22.1 min; in test [2], 20.4 min. The same molecule gave an Affinity in test [4] of 193 nM.

B6: … (peptide)
peptide: MANGSLLNYL
Take B6: the Stability (half-life (hr.)) in test [7] was found to be 0 h; in test [2], 0 min. The Affinity in test [4] came out at 1010 nM.

B7: … (peptide)
peptide: LTSTVQLIM
For B7, the Stability (half-life (hr.)) in test [5] came out at 6.22 min. For the same molecule, the Affinity in test [6] came out at 2.89 µM.

B8: … (peptide)
peptide: MQLMPFGCL
In the case of B8, the figures for the Stability (half-life (hr.)) in test [7] and in test [2] were 0 h and 22.1 min, respectively. The Affinity in test [8] was determined as 1590 nM; in test [4], 116 nM.

B9: … (peptide)
peptide: QLIMQLMPFG
Turning to B9, in test [2], the Stability (half-life (hr.)) amounted to 0 min. Also, in test [4], the Affinity was found to be 5210 nM.

B10: … (peptide)
peptide: YMANGSLLN
In the case of B10, the Stability (half-life (hr.)) in test [2] is 0 min. The molecule also showed an Affinity in test [4] of 4000 nM.

B11: … (peptide)
peptide: SLLNYLREM
In the case of B11, the Stability (half-life (hr.)) turned out to be 0 h in test [7] and 183 min in test [2]. The Affinity in test [8] turned out to be 866 nM; in test [4] it was 67.7 nM.

B12: … (peptide)
peptide: IMQLMPFGC
Molecule B12 displayed a Stability (half-life (hr.)) in test [2] of 22.2 min. The molecule further showed an Affinity in test [4] of 1210 nM.

B13: … (peptide)
peptide: LIMQLMPFG
In turn, B13 yielded a Stability (half-life (hr.)) in test [2] of 0 min. The Affinity in test [4] came to 3340 nM.

B14: … (peptide)
peptide: VQLIMQLMPF
In the case of B14, the Stability (half-life (hr.)) in test [1] and in test [2] was 0 min throughout. Besides, the Affinity in test [3] was 4.1 µM; in test [4] it was 4940 nM.

The values above are taken from patent US20230398218A1, “RAS NEOANTIGENS AND USES THEREOF” (priority 2020, published 2023).
